{"source": "paper PMC10404741", "target": "protein-base BG505 trimer (BG505 DS-SOSIP-2G-3Mut-RnS7Mut) (HIV-1 (BG505)) (UniProt Q2N0S6)", "test": "SPR; 2G12 antibody immobilised on a CM5 chip (about 2,000 RU), HIV trimer loaded onto it; sCD4 injected at five concentrations (30-500 nM), single cycle, 50 uL/min; 10 mM HEPES pH 7.4, 150 mM NaCl, 3 mM EDTA, 0.05% P-20; Biacore T-200", "data": [{"substance": "soluble construct of CD4 containing the first two domains (sCD4) (domain or fragment)", "values": [{"measurement": "Kd", "result": 1200, "unit": "nM"}]}]}
